The values that follow come from patent publication US20130072665A1.

Test [1] addresses cynomolgus monkey PCSK9 (cynomolgus monkey). In words: KinExA solution equilibrium. In general terms: A kinetic exclusion assay measures how much of one partner remains free in solution.
For test [2] the target is unchanged. In words: BIAcore, antibody immobilised, pH 7.4. A general note: SPR reads the build-up and loss of mass on a sensor chip optically.
Test [3] shares this target. In words: BIAcore solution equilibrium.
Test [4] has the same target. In words: BIAcore solution equilibrium, % free cPCSK9 against [21B12]; third of four curves; cPCSK9 concentration not given.
The target is the same in test [5]. In words: BIAcore solution equilibrium, % free cPCSK9 against [21B12]; second of four curves; cPCSK9 concentration not given.
For test [6] the target is unchanged. In words: BIAcore solution equilibrium, % free cPCSK9 against [21B12]; leftmost of four curves; cPCSK9 concentration not given.
For test [7] the target is unchanged. In words: BIAcore solution equilibrium, % free cPCSK9 against [21B12]; rightmost of four curves; cPCSK9 concentration not given.
Test [8] shares this target. In words: BIAcore solution equilibrium, column To Cyno PCSK9.

B1: 16F12, anti-PCSK9 huIgG4 (antibody, V domains shown)
VH: QVHLVESGGGVVQPGRSLRLSCAASGFTFNSFGMHWVRQAPGKGLEWVALIWSDGSDEYYADSVKGRFTISRDNSKNTLYLQMNSLRAEDTAVYYCARAIAALYYYYGMDVWGQGTTVTVSS
VL: QSVLTQPPSVSAAPGQKVTISCSGSSSNIGNNFVSWYQQLPGTAPKLLIYDYNKRPSGIPDRFSGSKSGTSATLGITGLQTGDEADYYCGTWDSSLSAYVFGTGTRVTVLQ
For B1, the Kd (in general, a measure of binding affinity in units of concentration) worked out at 0.016 nM in test [1] and 0.87 nM in test [2].

B2: 21B12, anti-PCSK9 huIgG4 (antibody, V domains shown)
VH: QVQLVQSGAEVKKPGASVKVSCKASGYTLTSYGISWVRQAPGQGLEWMGWVSFYNGNTNYAQKLQGRGTMTTDPSTSTAYMELRSLRSDDTAVYYCARGYGMDVWGQGTTVTVSS
VL: QSALTQPASVSGSPGQSITISCTGTSSDVGGYNSVSWYQQHPGKAPKLMIYEVSNRPSGVSNRFSGSKSGNTASLTISGLQAEDEADYYCNSYTSTSMVFGGGTKLTVLQ
As for B2, the results for the Kd in test [3] and in test [2] were 0.011 nM and 0.36 nM, respectively. Also, the IC50 (read off the curve) came to 0.09 nM in test [4], 0.03 nM in test [5], 0.02 nM in test [6] and 0.2 nM in test [7].

B3: 23B5 (antibody, V domains shown)
VH: EVQLLESGGGLVQPGGSLRLSCAASGFTFSSYAMNWVRQAPGKGLEWVSTISGSGDNTYYADSVKGRFTISRDNSKNTLYLQMNSLRAEDTAVYYCAKKFVLMVYAMLDYWGQGTLVTVSS
VL: DILMTQSPSSLSASVGDRVTITCRASQSISSYLNWYQQKPGKAPKVLIYAASSLQSGVPSRFSGSGSGTDFTLTINSLQPEDFATYYCQQSYSSPITFGQGTRLEIK
Consider B3, for which, in test [8], the Kd came out at 0.12 nM.
